Assay: soluble on expression in E. coli; label from the status in PepcDB or PDB records

| Sequence | soluble on expression in E. coli |
| --- | --- |
| GEERKSSSWGRVDAMELPNYSRQLLQQLYTLCKEQQFCDCTISIGTIYFRAHKLVLAAASLLFKTLLDNTDTISIDASVVSPEEFALLLEMMYTGKLPVGKHNFSKIISLADSLQMFDVAVSCKNLLTSLVNCSVQGQVVRDVSAPSSETFRKEPEKPQVEILSSEGAGEPHSSPELAATPGGPVKAETEEAAHSVSQEMSVNSPTAQESQRNAETPAETPTTAEACSPSPPVQTFSEAKKTSTEPGCERKHYQLNFLLENEGVFSDALMVTQDVLKKLEMCSEIKGPQKEMIVKCFEGEGGHSAFQRILGKVREESLDVQTVVSLLRLYQYSNPAVKTALLDRKPEDVDTVQPKGSTEEGKTLSVLLLEHKEDLIQCVTQLRPIMESLETAKEEFLTGTEKRVILNCCEGRTPKETIENLLHRMTEEKTLTAEGLVKLLQAVKTTFPNLGLLLEKLQKSATLPSTTVQPSPDDYGTELLRRYHENLSEIFTDNQILLKMISHMTSLAPGEREVMEKLVKRDSGSGGFNSLISAVLEKQTLSATAIWQLLLVVQETKTCPLDLLMEEIRREPGADAFFRAVTTPEHATLETILRHNQLILEAIQQKIECKLFTSEEEHLAETVKEILSIPSETASPEASLRAVLSRAMEKSVPAIEICHLLCSVHKSFPGLQPVMQELAYIGVLTKEDGEKETWKVSNKFHLEANNKEDEKAAKEDSQPGEQNDQGETGSLPGQQEKEASASPDPAKKSFICKACDKSFHFYCRLKVHMKRCRVAKSKQVQCKECSETKDSKKELDKHQLEAHGAGGEPDAPKKKKKRLPVTCDLCGREFAHASGMQYHKLTEHFDEKPFSCEECGAKFAANSTLKNHLRLHTGDRPFMCKHCLMTFTQASALAYHTKKKHSEGKMYACQYCDAVFAQSIELSRHVRTHTGDKPYVCRDCGKGFRQANGLSIHLHTFHNIEDPYDCKKCRMSFPTLQDHRKHIHEVHSKEYHPCPTCGKIFSAPSMLERHMVTHVGGKPFSCGICNKAYQQLSGLWYHNRTHHPDVFAAQNHRSSKFSSLQCSSCDKTFPNTIEHKKHIKAEHADMKFHECDQCKELFPTPALLQVHVKCQHSGSQPFRCLYCAATFRFPGALQHHVTTEHFKQSETTFPCELCGELFTSQAQLDSHLESEHPKVMSTETQAAASQMAQVIQTPEPVAPTEQVITLEETQLAGSQVFVTLPDSQASQASSELVAVTVEDLLDGTVTLICGEAK | soluble |
| GEHTTCGCGEHCGCNPCACGREGTPSGRANRRANCSCGAACNCASCGSATAPG | soluble |
| GFKCGIVGLPNVGKSTLFNALTKAGIEAANFPFCTIEPNTGVVPMPDPRLDQLAEIVKPQRTLPTTMEFVDIAGLVKGASKGEGLGNQFLTNIRETEAIGHVVRCFENDNIIHVSGKVNPADDIEVINTELALADLDTCERAIHRVQKKAKGGDKDAKAELAVLEKCLPQLENAGMLRALDLSAEEKAAIRYLSFLTLKPTMYIANVNEDGFENNPYLDQVREIAAKEGSVVVPVCAAVEADIAELDDEERDEFMQELGLEEPGLNRVIRAGYKLLNLQTYFTAGVKEVRAWTIPVGATAPQAAGKIHTDFEKGFIRAQTISFEDFITYKGEQGAKEAGKMRAEGKDYIVKDGDVMNFLFNV | not soluble |
| GGALGGSIAFETVDAQDLLEGNQKLGMMLRSGYASASDGYLGGTSVYGLLSDHLGILVDVSGQNEDDYRGGSGEDALYTATKDRNYFAKLSLLDLEGHTLKVGATHNKSSGHYVSGSTGSDMGAPSASQKADFQVLKRDTYTLDHRYNPENPYVDIQTKIYRNERHLENRTSLLDVTSQTTGGSLKNVMTLDSGIFQHRFTLGGDYEQEKGIVENSLYENEAKTTGLFLQGLTRVEALKLHYGLRWDDYKSDFGPKTLSGDELSPNFGAEYELLSGLALFSNYSESVRAGGIIPLQWMAGITQSANFNNGEAFKPEISKQKEGGIKYSTRGVFADNDRMKLSATLFKTTIENLIDYTRSGGPSGKITKIFNQEEDLISKGYELKASWEKEAWATSLGFIHVEMEEGGEPVVVSRRKAASMGDRFVWDVSYQMTPELLLGYTLHAVDKLDDVPALYRRAGYVTHDLELQWRPASIKGLTWSLAVHNLLDKSYYEQSSFESGDSIVEEAGRDVRLAVKYKF | not soluble |
| GGGGGGMVNLQRARTPIHRVGFARPPLHLAIPHPATTTPCAMSAESLVLALVLLALCGAVMLRWISQRHAHDSAVGDKALTHKGRLRLSQNASGSAAGRCGSDDGNDSDQGGVDDDNGGAVGRRRRGAGGVLRRRRPQERGGNARRGGSDGDENSYDGDDAGGIPETDANGVKLTRLQRKKLAKEREREERRQAQEAALEAQRQRMDVNELRDAEAALREEELKAAEEAALQQLRRDKKKAEDEEYAKWVSHIGVEERGELGDEERERQTRMQSFLLDRAAQVQARARRSAAGAKSSPSEEECIHVLILQTAARDLKVSVEELVSTIEQLSQVDKVHGVFDDRGKYVFIAPEQFPLLAQFIRLRGRVSVQEFTRECNRVVMQS | soluble |
| GGNANMFMNLSREAQSETRRHHYLSSSQKEAKDFAMFADTSNPTLVRTIGVRNNLSLITDPRTGGTALMTDQSIPRKFVLGSKSSAPGENAKVFRDEMRAAGHNVSTKQAGELLREVQSDSDDDNFPDPDDFIMSRFTG | not soluble |
| GGNSKSRNDRTETVDKEVIKAPEFDADSAYQYIQVQADFGPRVPNTQAHKECGEYLAGQLEKFGAKVYNQYADLIAYDGTILKSRNIIGAYKPESKKRILLCAHWDSRPYADNDPDPKNHHTPILGVNDGASGVGVLLEIARQIQKEQPALGIDIVFFDSEDYGIPEFYDGKYKQDTWCLGSQYWARTPHVQNYNARYGILLDMVGGKDATFYYEGYSARTARSEMKKIWKKAHELGYGKYFVKEDGGETVDDHIYVNKLARIPCVDIINYDAGNPQSSFGSFWHTVNDTMENIDRNTLKAVGQTVMDVIYNEK | soluble |
| GGTAYWKNPDQFTAFNTGLHALLREKSYNFFLLGEPRADIYGDNPIGGEASQGMERLPFNTINKENVGISNYGDMYKIINQINQMIAKTTETTILTEATQNYYLGEAYGMRAYLYFHLLRSWGDVVLYLDYTEGQNLDLSNITKGVSPATEVMEQIKKDIQASENAFGSDYSFKLGRHFWSAAATQMLKGEAYLWSGRQMNGGNSDYTIAKNAFENVKKADVGLVTSSFKDIFSFENKKNKEMIFTIHNGKDEYEMWGGYYRMRLIPAQDKMVKIYCDENGNSFVGTPDAQLNGLTQLQVRREFYFKGFRNNDTRWTTSLKAVYKKDAQGVVSYFGPITYKFQGTMLEGGSTRSFLDDFPIYRYADCLLQLAMAKVLLGEDPTEEINAVRERAYGSKYFNEHKAEIAYPNDNDPEFYTDNKWMKPDNAGALEAILKERLREFMFEGKRWYDIRLLGWDYVHQYSSAEQSRLLWPIDAGTLTNNSALKQTPGYE | soluble |
| GHMGKPDISAKDLRNIMYDHLPGFGTAFHQLVQVICKLGKDSNSLDIIHAEFQASLAEGDSPQCALIQITKRVPIFQDAAPPVIHIRSRGDIPRACQKSLRPVPPSPKIDRGWVCVFQLQDGKTLGLAI | soluble |
| GHMPGRAPGSTLARVGSIPAGDDVLDPDEPTYDLPRVAELLGVPVSKVAQQLREGHLVAVRRAGGVVIPQVFFTNSGQVVKSLPGLLTILHDGGYRDTEIMRWLFTPDPSLTITRDGSRDAVSNARPVDALHAHQAREVVRRAQAMAY | soluble |
| GHMSRRSFKNRVLAFFKGYPSFYYPATLVAPVHSAVTSSIMYKVQFDDATMSTVNSNQIKRFFLKKGDVVQSTRLGKIKHTVVKTFRSTNEQLSLIAVDALNNDMVILAHGEIEVTVPISTIYVAPVNIRRFQGRDLSFSTLKDMKFEETSFL | soluble |
| GIDTVGGKMTVCQLYDKKNSQRKNIKRATEKGRQYLMNALKNDPLGMRAIDTVKQSDAKEWAIRMSEKGYAYKTIDNYKRSLKASFYMAIQDDCIRKNPFDFKLSDVLEDDTEQKVILTPEQEERLLAFMEKDKIYSKYYDEVVLLLETGLRISEFCGLTMHIDMQNRILNIDHQLLKDSEIGYYIETPKTKNGKRELPLTERAYQAIQRILKSRGKAQPLIVGGYSNFLFLNREGLPKVAGNYEGMVRGLIKKYNKYHTDKLPNITPHSFRHTYCTNMANRGMNPNTLQYLMGHANITMTLGYYAHGTFQSAKAELERLAC | not soluble |
| GISPNVLNNMKSYMKHSNIRNIIINIMAHELSVINNHIKYINELFYKLDTNHNGSLSHREIYTVLASVGIKKWDINRILQALDINDRGNITYTEFMAGCYRWKNIESTFLKAAFNKIDKDEDGYISKSDIVSLVHDKVLDNNDIDNFFLSVHSIKKGIPREHIINKISFQEFKDYMLSTF | soluble |
| GKKQEPYEQVTIDVEEQHQGSVMEALGIRKGEVRDMLPDGKGRVRLEYIIPSRGLIGFRGDFMTMTSGTGLLYSSFSHYDEIKGGEIGQRKNGVLISNATGKALGYALFGLQERGKLMIDANIEVYEGQI | not soluble |
| GKSPEAECNKITEEPKCSEEKICSWHKEVKAGEKNCQFNSTKASKS | soluble |
| GLEVDNNSLLRNIYSTIVYEYSDIVIDFKTSHNLVTKKLDVRDARDFFINSEMDEYAANDFKTGDKIAVFSVPFDWNYLSKGKVTAYTYGGITPYQKTSIPKNIPVNLWINGKQISVPYNEISTNKTTVTAQEIDLKVRKFLIAQHQLYSSGSSYKSGRLVFHTNDNSDKYSFDLFYVGYRDKESIFKVYKDNKSFNIDKIGHLDIEIDS | soluble |
| GLLAIFIVFAISWGALVEITPLIFQKQTTESVENLRVYTPLEMEGRDIYIREGCNVCHSQMVRPFRSETERYGHYSVAGESVWEHPFLWGSKRTGPDLARVGGRYSDEWHRVHLLDPRELVPESNMPGFPWLAENVLDGKLTQKKLEVFRDQFGVPYEDETIANAAKEVEGKTEMDAIIAYLQSLGH | not soluble |
| GMAFMEKIFPDILEAIRNEEIIKESKKIPMPYFGLFALVIFDKVKELGSETSLYEIGEEFGKMLSPKNIEELKKIFKLMNFGDLEIDENKILLKNPPYKIKLSNPPYQWVSKEEPIHDFIAGILAGCLEEIFYYYFVVNEVECVSQGKDKCVFEVKEVDELNK | soluble |
| GMAKKTLILYYSWSGETKKMAEKINSEIKDSELKEVKVSEGTFDADMYKTSDIALDQIQGNKDFPEIQLDNIDYNNYDLILIGSPVWSGYPATPIKTLLDQMKNYRGEVASFFTSAGTNHKAYVSHFNEWADGLNVIGVARDDSEVDKWSK | soluble |
| GMANLLSTCTSESGNIQHISPQNAGWEYVGFDVWQLKAGESITLPSDERERCLVLVAGLASVKAADSFFYRIGQRMSPFERIPAYSVYLPHHTEAKVTAETDLELAVCSAPGFGELPVRLISPQEVGVEHRGKGRNQRLVHNILPDSQLADSLLVVEVYTNAGATSSWPAHKHDTAVEGQETYLEETYYHRFNPPQGFCLQRVYTDDRSLDECMAVYNRDVVKVPKGYHPVATIAGYDNYYLNVMAGPLRKWRFTWEENHAWINSPDYPR | soluble |
| GMASVLSAATATDQGPVRENNQDACLADGILYAVADGFGARGHHASATALKTLSAGFAAAPDRDGLLEAVQQANLRVFELLGDEPTVSGTTLTAVAVFEPGQGGPLVVNIGDSPLYRIRDGHMEQLTDDHSVAGELVRMGEITRHEARWHPQRHLLTRALGIGPHIGPDVFGIDCGPGDRLLISSDGLFAAADEALIVDAATSPDPQVAVRRLVEVANDAGGSDNTTVVVIDLG | soluble |
| GMATVRLLDDAEISTLPEVKAVFDDIRATRGSDFVNNIWRGLANDPALLKRTWEQVKTVMVGEGALDPLTREMIYLAVSTANSCSYCAHSHTAAARAKGMTPAQHAEVLAIIGLAAQTNALVTAMQIPVDEAFLVDGK | soluble |

— the DeepSol protein solubility set
